Measured values as given in patent US20250059294A1 (PURINOMIA BIOTECH, published 2025).
Several values for one entry are separate records, joined by “and”; a condition that tells them apart may be missing. Equal values may be shown once.

Legend:
[1] = target: T1, human CD39 (ectonucleoside triphosphate diphosphohydrolase-1) (human, UniProt P49961 1-510); test: flow cytometry; HCC1739BL cells
T1 chain: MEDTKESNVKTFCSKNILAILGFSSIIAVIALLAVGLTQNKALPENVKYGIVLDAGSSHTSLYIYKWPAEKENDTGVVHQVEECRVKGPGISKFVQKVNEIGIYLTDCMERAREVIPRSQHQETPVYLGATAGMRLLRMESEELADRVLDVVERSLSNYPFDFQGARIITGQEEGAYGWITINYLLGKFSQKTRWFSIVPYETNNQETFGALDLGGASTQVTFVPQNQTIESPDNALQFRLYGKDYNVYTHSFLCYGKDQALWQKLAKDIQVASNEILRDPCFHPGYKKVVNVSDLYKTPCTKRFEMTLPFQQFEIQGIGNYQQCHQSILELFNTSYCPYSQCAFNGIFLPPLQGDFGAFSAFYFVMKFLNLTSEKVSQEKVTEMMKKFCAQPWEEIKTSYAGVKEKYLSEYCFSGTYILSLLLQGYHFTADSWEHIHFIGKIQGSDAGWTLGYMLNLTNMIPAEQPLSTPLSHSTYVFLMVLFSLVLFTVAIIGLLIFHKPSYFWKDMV

[2] = target: T2, human CD39 (ectonucleoside triphosphate diphosphohydrolase-1) (human, UniProt P49961 1-510); test: flow cytometry, serial dilution on CHO-hCD39 cells, anti-human IgG Fc AF488 secondary
T2 construct: whole, on cells; also called hCD39; ENTPD1
T2 sequence (looked up): T1 chain
Method: FIG. 10. […] Ig39-21 WT, Ig39-21 AF or NP501-BK (an optimized version of Ig39-21 by production using stably transfected cells) were serially diluted as indicated and incubated with CHO-hCD39 cells for 30 minutes at 4° C. Cells were then stained with secondary antibody (anti-human IgG (Fc specific), Alexa Fluor® 488) for 30 minutes at 4° C. and analyzed by flow cytometry. Human IgG1 isotype control antibody (KLH-hIgG1) was used in parallel.

[3] = target: T2, human CD39 (ectonucleoside triphosphate …); test: flow cytometry, serial dilution on HCC1739BL cells, anti-human IgG Fc AF488 secondary
Method: FIG. 11. […] Ig39-21 WT, Ig39-21 AF or NP501-BK were serially diluted as indicated and incubated with HCC1739BL cells for 30 minutes at 4° C. Afterwards, cells were stained with secondary antibody (anti-human IgG (Fc specific), Alexa Fluor® 488) for 30 minutes at 4° C. and analyzed by flow cytometry. Human IgG1 isotype control antibody (KLH-hIgG1) was used in parallel.

[4] = target: T2, human CD39 (ectonucleoside triphosphate …); test: cell-based or functional assay
[5] = target: T2, human CD39 (ectonucleoside triphosphate …); test: flow cytometry, serial dilution on HCC1739BL cells, 30 min at 4 °C
Method: FIG. 1. Affinity of Ig39-21 measured by flow cytometry using human CD39hi human B lymphoblastoid (HCC1739BL) cells. Our fully human anti-CD39 antibody clone Ig39-21 produced by transient transfection was serially diluted as indicated and incubated with HCC1739BL cells for 30 minutes at 4° C., followed by flow cytometric analysis.

B1: Human/Rabbit chimeric clone 8D8 (antibody, V domains shown)
VH: QSVEESGGRLVTPGTPLTLTCTVSGFSLSSYAISWVRQAPGKGLEYIAIINSYGTTYYASWAKGRVTISKTSSTVDLKISSPTTEDTATYFCARGDSYGSGVGLGLWGPGTLVTVSS
VL: AYDMTQTPASVEVAVGGTVTIKCQASQNIYSNLAWYQQKPGQRPKLLIYRASSLASGVPSRFSGSGSGTEFTLTISGVQCDDAATYYCQQGFSSNNVDNTFGGGTEVVVK
With B1 the Kd [1] was 1.1 nM.

B2: Human/Rabbit chimeric clone 9C10 (antibody, V domains shown)
VH: QSVEESGGRLVTPGTPLTLTCTVSGFSLSSYAMSWVRQAPGKGLEYIGIISSSGSTYYASWAKGRFTISKTSTTVDLKISSPTTEDTATYFCARDRVIYSIGPYYFNLWGPGTLVTVSS
VL: AYDMTQTPSSVSATVGGTVTINCQASEIIYSNLAWYQQKPGQPPKLLIYGASTLASGVPSRFKGSGSGTEYTLTISDLQCDDAATYYCQQSFSSNNVGNIFGGGTEVVVK
Work on B2 yielded a Kd [1] of 2.95 nM.

B3: Ig39-21 WT (antibody, human IgG1, kappa, V domains shown)
VH: EVQLVESGGGVVRPGGSLRLSCAASGFTFSSYAMHWVRQAPGKGLEWVAVISYDVSNKYYADSVKGRFTISRDNSKNTLYLQMNSLRAEDTAVYYCARSYYYYYGMDVWGQGTTVTVSS
VL: DVVMTQSPSSLSASVGDRVTITCRASQSISRYLAWYQQKPGQAPRLLIYDASNRATGIPVRFSGSGSGTDFTLTISRLEPEDFAVYYCQQFGRSPRTFGQGTRLEIKR
notes: also called fully human anti-CD39 antibody clone Ig39-21
With B3 the Kd [2] was 0.52 nM, the Kd [3] was 0.29 nM and the “ADCC Luc-reporter assay (Jurkat hCD16a-158V effector cells), HCC1739BL target cells, EC50” value [4] was 0.014 mg/L. The “ADCC Luc-reporter assay, HCC1739BL target cells, EC50” value [4] was 0.014 mg/L and 0.02 mg/L, the “CDC assay (10% Normal Human Serum), Raji-hCD39hi target cells, EC50” value (“CDC assay (10% Normal Human Serum)” for short) [4] was 0.38 mg/L and the Kd [5] was 0.412 nM.

B4: NP501-BK (antibody, V domains shown)
VH: B3 VH
VL: B3 VL
modifications: decreased fucosylation by optimized production process
notes: 'An optimized version of Ig39-21 by production using stably transfected cells' (CHO); also called Optimized Ig39-21
In the case of B4, the Kd [2] is reported as 0.48 nM, the Kd [3] is reported as 0.16 nM and the “ADCC Luc-reporter assay, HCC1739BL target cells, EC50” value [4] is reported as 0.0017 mg/L. The “CDC assay (10% Normal Human Serum)” value [4] was 0.31 mg/L.

B5: Ig39-21 AF (antibody, human IgG1, kappa, V domains shown)
VH: B3 VH
VL: B3 VL
modifications: afucosylated glycan (produced in presence of fucosylation inhibitor 2-Deoxy-2-fluoro-L-fucose)
notes: also called afucosylated Ig39-21
For B5, the Kd [2] was 0.51 nM, the Kd [3] was 0.35 nM and the “ADCC Luc-reporter assay, HCC1739BL target cells, EC50” value [4] was 0.00086 mg/L and 0.0008 mg/L. The “CDC assay (10% Normal Human Serum)” value [4] was 0.25 mg/L.

B6: Human/Rabbit chimeric clone 8C11 (antibody, V domains shown)
VH: QSVEESGGRLVTPGTHLTLTCTVSGFSLSKSIISWVRQAPGKGLEYIGIIGSSGSTYYANWAKGRFTISKTSSTTVDLRMTSLTPEDTATYFCARGLLYSGNKSWGPGTLVTVSS
VL: AIDMTQTPSSVSAAVGGTVTINCQSSQSVLLNNQLSWFQQKPGQPPKLLIYDASTLESGVPSRFTGSGSGTQFTLTISDLECDDAATYYCLGGYSGNLYAFGGGTEVLVK
Work on B6 yielded a Kd [1] of 1.68 nM.

B7: Human/Rabbit chimeric clone 9B6 (antibody, human IgG1, V domains shown)
VH: QSVKEAGGRLVTPGGSLTLTCTVSGFSLSAYGISWVRQAPGKGLEWIGIIYSSGRTYYANWAKGRFTISKTSSTTVDLKMTSLTTEDTAAYFCARSRAGISSGDGFDSWGPGTLVTVSS
VL: ALVMTQTPSSVSAAVGGTVTINCQASQNIYSNLAWYQQKPGQRPQLLIYRASTLASGVPSRFKGSASGTEYTLTISGVQCDDAATYYCQQGFDSSNIDNTFGGGTEVVVT
In the case of B7, the “ADCC Luc-reporter assay, HCC1739BL target cells, EC50” value [4] is reported as 0.022 mg/L.
